pKd: −log10 of the molar value.
Assays:
[1] = molecular target: Full length zebrafish Cavin4b (zebrafish) (UniProt Q5PQY9); assay: ITC
[2] = molecular target: Bin1b SH3 domain (zebrafish); assay: ITC

Row | Substance | pKd [1] | pKd [2]
1 | Bin1b SH3 domain (domain or fragment) | 4.25 | 
2 | Cavin4b PRD peptide |  | 4.21
3 | Chikungunya virus (CHIKV) proline-rich peptide |  | 7.05

— publication doi:10.1101/2021.01.13.426456
